Series [1] concerns the molecule itself. The series is described as follows: SEC; Superdex 75, 25 mM HEPES pH 7.0, 500 mM NaCl, 5% glycerol, 2 mM DTT, 0.025% azide; second step of the purification; single large peak at ~76 kDa; self-association. (In gel filtration, larger molecules generally elute earlier.)
Series [2] deals with the molecule itself. The series is described as follows: crystal structure; apo PxSDR, space group P2(1), 1.45 Å; sitting drop, 0.2 M magnesium chloride, 0.1 M bis-Tris pH 5.5, 25% PEG 3350, 287 K; self-association: tetramer.

B1: putative short-chain dehydrogenase/reductase from Paraburkholderia xenovorans (His-PxSDR) (enzyme)
chain: MSSAGRLQGKVALVTGAGCIGPGWGNGRAIAVRFAEEGAHVIAVDRDLASMDATLELVRAAGGSVTPCLCDVTDSASVERLVADSVARCGRVDILVNNVGAPSPGGPVALDEAQWAMQLELNLTTAFLMCKYVLPVMEQQGGGAIVNIASTSGIRWTGAAQVGYAAAKAGMIQMGRVVAVEYAAKNVRVNSVVPGLLHTPMVDTKIAHNQAGGDVELLLRKRQARIPMPFMGDGRDTANAALFLASDEARFVTGTEIVVDGGMSARCD
notes: putative short-chain dehydrogenase/reductase (PxSDR), Paraburkholderia xenovorans strain LB400, UniProt Q13GE3, full length, amplified from genomic DNA; copies therefore left empty; also called P. xenovorans SDR; putative short-chain reductase; source: E. coli BL21(DE3)R3 Rosetta, purified (IMAC on Ni-NTA HisTrap FF, SEC on Superdex 75)
By stoichiometry N is commonly meant the number of molecules, sites or subunits per partner or assembly. Consider B1, for which the “stoichiometry N” value in series [1] is 2; in series [2], 4.
